Molecular target: heat shock protein 70 (UniProt P0DMV8)
Assay: co-immunoprecipitation (anti-Flag beads) and western blot, band densitometry
Conditions: beads incubated with celastrol for 10 min, room temperature; n = 3; parent: est. 0.73; read off a plot

Sequence of UniProt P0DMV8 (P0DMV8 whole entry): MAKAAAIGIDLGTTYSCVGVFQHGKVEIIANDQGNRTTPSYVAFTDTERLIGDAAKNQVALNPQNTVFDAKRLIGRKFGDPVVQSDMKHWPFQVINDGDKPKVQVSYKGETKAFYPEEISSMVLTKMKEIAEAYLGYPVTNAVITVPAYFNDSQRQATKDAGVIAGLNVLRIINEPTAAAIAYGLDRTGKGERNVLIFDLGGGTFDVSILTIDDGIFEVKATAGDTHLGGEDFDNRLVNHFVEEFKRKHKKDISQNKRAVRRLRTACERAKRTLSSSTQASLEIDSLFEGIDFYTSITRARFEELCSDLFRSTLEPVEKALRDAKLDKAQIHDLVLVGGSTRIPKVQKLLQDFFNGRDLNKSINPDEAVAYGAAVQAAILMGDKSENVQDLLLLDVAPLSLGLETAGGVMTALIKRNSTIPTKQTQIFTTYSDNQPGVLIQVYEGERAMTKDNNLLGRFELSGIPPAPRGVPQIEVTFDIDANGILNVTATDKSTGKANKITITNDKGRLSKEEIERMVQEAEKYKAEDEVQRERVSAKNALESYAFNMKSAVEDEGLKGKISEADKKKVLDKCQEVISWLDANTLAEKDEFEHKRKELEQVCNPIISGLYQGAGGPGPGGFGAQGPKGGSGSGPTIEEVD

other: band density of cell-free experiment (ratios to HSP90α), DMSO group set as 1.0: 1.3
Substance: wild-type human HSP90α (Flag-tagged, from pCMV-tag2a) (from UniProt P07900-1) Y493G; K546D

Reference: paper PMC4932452
